The source of these data is paper PMC11945200, “Aptamer Paper-Based Fluorescent Sensor for Determination of SARS-CoV-2 Spike Protein”.

The series addresses SARS-CoV-2 spike S1 protein (SARS-CoV-2, UniProt P0DTC2 13-685). Put plainly: fluorescence recovery (target-induced release of the probe from Nb2C MXene quencher). Conditions: protein: recombinant.

B1: SARS-CoV-2 S-RBD aptamer (G-CDs@Apt) (ssDNA)
DNA: CAGCACCGACCTTGTGCTTTGGGAGTGCTGGTCCAAGGGCGTTAATGGACA
modifications: 5'-NH2-C6
With B1, the binding result is “binds”.
